In PMC5078997, “Diversity-oriented synthetic strategy for developing a chemical modulator of protein–protein interaction” (Nature Communications, 2016):

Target: T1, His-tagged human leucyl-tRNA synthetase (LRS) (human, UniProt Q9P2J5 1-1176)
T1 construct: leucyl-tRNA synthetase (LRS), human; also called His-LRS; human LRS; source: laboratory stocks; purified
Assay: ELISA; His-tagged human LRS coated on the plate (0.5 ng/ul in 100 mM carbonate buffer, pH 9.6, overnight at 4 °C), blocked with 5% BSA in PBS; GST-tagged human RagD added together with each compound for 3 h; detected with anti-GST and HRP-conjugated secondary antibody, TMB, absorbance at 450 nm
Conditions: both partners purified

T1 sequence (Q9P2J5 whole entry): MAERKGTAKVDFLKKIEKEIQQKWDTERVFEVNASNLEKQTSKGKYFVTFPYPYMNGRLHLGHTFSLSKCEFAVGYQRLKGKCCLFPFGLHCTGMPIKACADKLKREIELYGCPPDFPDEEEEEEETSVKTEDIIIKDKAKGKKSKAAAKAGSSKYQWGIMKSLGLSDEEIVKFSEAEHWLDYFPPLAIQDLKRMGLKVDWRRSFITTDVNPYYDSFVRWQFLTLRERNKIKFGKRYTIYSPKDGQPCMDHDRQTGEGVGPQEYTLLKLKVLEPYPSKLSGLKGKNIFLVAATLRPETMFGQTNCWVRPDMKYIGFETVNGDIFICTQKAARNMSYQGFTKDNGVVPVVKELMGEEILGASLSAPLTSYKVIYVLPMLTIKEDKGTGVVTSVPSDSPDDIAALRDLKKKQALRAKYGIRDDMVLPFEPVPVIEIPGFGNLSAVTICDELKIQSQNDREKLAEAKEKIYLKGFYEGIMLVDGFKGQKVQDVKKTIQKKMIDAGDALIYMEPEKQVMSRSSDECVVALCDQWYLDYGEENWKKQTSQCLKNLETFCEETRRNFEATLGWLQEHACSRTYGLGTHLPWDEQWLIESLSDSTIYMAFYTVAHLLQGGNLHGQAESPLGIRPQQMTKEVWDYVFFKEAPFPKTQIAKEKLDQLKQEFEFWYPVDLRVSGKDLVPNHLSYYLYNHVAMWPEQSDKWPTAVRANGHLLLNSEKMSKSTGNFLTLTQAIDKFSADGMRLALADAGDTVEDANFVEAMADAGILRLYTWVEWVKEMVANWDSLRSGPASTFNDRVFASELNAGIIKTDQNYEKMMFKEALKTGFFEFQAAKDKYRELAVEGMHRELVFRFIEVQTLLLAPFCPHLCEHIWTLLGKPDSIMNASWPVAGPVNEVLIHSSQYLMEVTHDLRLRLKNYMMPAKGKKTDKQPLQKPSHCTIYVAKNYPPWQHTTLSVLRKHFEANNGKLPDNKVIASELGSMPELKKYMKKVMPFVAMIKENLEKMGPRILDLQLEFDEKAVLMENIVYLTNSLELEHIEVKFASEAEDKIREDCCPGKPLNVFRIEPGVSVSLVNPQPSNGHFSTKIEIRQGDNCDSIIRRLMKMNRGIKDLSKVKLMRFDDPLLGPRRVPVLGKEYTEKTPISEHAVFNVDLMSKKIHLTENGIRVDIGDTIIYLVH

binding result: binds
B1: GST (glutathione-S-transferase)-tagged human Ras-related GTP-binding protein D (RagD) (natural protein, UniProt Q9NQL2 1-400, looked up)
chain: MSQVLGKPQPQDEDDAEEEEEEDELVGLADYGDGPDSSDADPDSGTEEGVLDFSDPFSTEVKPRILLMGLRRSGKSSIQKVVFHKMSPNETLFLESTNKICREDVSNSSFVNFQIWDFPGQIDFFDPTFDYEMIFRGTGALIFVIDSQDDYMEALARLHLTVTRAYKVNTDINFEVFIHKVDGLSDDHKIETQRDIHQRANDDLADAGLEKIHLSFYLTSIYDHSIFEAFSKVVQKLIPQLPTLENLLNIFISNSGIEKAFLFDVVSKIYIATDSTPVDMQTYELCCDMIDVVIDISCIYGLKEDGAGTPYDKESTAIIKLNNTTVLYLKEVTKFLALVCFVREESFERKGLIDYNFHCFRKAIHEVFEVRMKVVKSRKVQNRLQKKKRATPNGTPRVLL
notes: also called GST-tagged RagD; source: laboratory stocks; purified
